Test results reported in US20230035659A1, “Compositions and Methods for TTR Gene Editing and Treating ATTR Amyloidosis Comprising a Corticosteroid or Use Thereof” (Intellia Therapeutics, Inc., priority 2019, published 2023).
Strand notation (5' to 3'): a small letter for the sugar, then the base; units joined by * are phosphorothioate-linked, units joined directly phosphodiester-linked; [ ] holds rarer units or linkages, { } end groups; capitals alone tell only the bases. m = 2'-O-methyl; r = 2'-OH (RNA)

B1: G000486: TTR sgRNA modified sequence, Human, SEQ ID NO: 93; guide sequence of CR003339 (nucleic acid)
guide: mA*mC*mA*rCrArArArUrArCrCrArGrUrCrCrArGrCrArGrUrUrUrUrArGrAmGmCmUmAmGmAmAmAmUmAmGmCrArArGrUrUrArArArArUrArArGrGrCrUrArGrUrCrCrGrUrUrArUrCrAmAmCmUmUmGmAmAmAmAmAmGmUmGmGmCmAmCmCmGmAmGmUmCmGmGmUmGmCmU*mU*mU*mU
B2: G000480: TTR sgRNA modified sequence, Human, SEQ ID NO: 87; guide sequence of CR003353 (nucleic acid)
guide: mA*mA*mA*rGrGrCrUrGrCrUrGrArUrGrArCrArCrCrUrGrUrUrUrUrArGrAmGmCmUmAmGmAmAmAmUmAmGmCrArArGrUrUrArArArArUrArArGrGrCrUrArGrUrCrCrGrUrUrArUrCrAmAmCmUmUmGmAmAmAmAmAmGmUmGmGmCmAmCmCmGmAmGmUmCmGmGmUmGmCmU*mU*mU*mU

Tests used:
[1] = tested on: TTR on-target site and potential off-target sites; experiment: Targeted amplicon sequencing of on-target and potential off-target sites in primary human hepatocytes treated with LNPs; assay type: cell-based; details: PHH; for highest concentration (of gRNA) at which the potential off-target sites were no longer detected: LNP 11 point dose response 0.001-46.55 nM gRNA; for indel rate observed at the on-target site / number of potential off-target sites identified by the oligo insertion assay at which indels were detected (low levels) / indels at the in silico predicted off-target sites: LNP with 100 ng Cas9 mRNA (SEQ ID NO: 1); for indel rate observed at the on-target site: near-saturating dose of LNP; for number of potential off-target sites identified by the oligo insertion assay at which indels were detected (low levels): near-saturating dose; for number of potential off-target sites identified by the oligo insertion assay at which indels were detected (low levels) / indels at the in silico predicted off-target sites / Indel Frequency, On-Target site: targeted amplicon sequencing; for on-target indel rate at the highest gRNA concentration without detected off-target sites: LNP, 0.57 nM (G000480) and 15.51 nM (G000486) gRNA
Protocol: The HEK293_Cas9 cells used in Example 5 for detecting potential off-targets constitutively overexpress Cas9, leading to a higher number of potential off-target “hits” as compared to a transient delivery paradigm in various cell types. […] Accordingly, potential off-target sites identified by an oligo insertion method as used in Example 5 may be validated using targeted sequencing of the identified potential off-target sites.
In one approach, primary hepatocytes are treated with LNPs comprising Cas9 mRNA and a sgRNA of interest (e.g., a sgRNA having potential off-target sites for evaluation). The primary hepatocytes are then lysed and primers flanking the potential off-target site(s) are used to generate an amplicon for NGS analysis. Identification of indels at a certain level may validate potential off-target site, whereas the lack of indels found at the potential off-target site may indicate a false positive in the HEK293_Cas9 cell assay.
Following the identification of potential off-target sites in […] via the oligo insertion assay, certain potential sites were further evaluated by targeted amplicon sequencing, e.g., as described in Example 6. In addition to the potential off-target sites identified by the oligo insertion strategy, additional potential off-target sites identified by in silico prediction were included in the analysis.
To this end, PHH were treated with LNPs comprising 100 ng of Cas9 mRNA (SEQ ID NO:1) and the gRNA of interest at 14.68 nM (in a 1:1 ratio by weight), as described in Example 4. The LNPs were prepared using the cross-flow procedure described above and purified and concentrated using PD-10 columns and Amicon centrifugal filter units, respectively. The LNPs were formulated with an N:P ratio of 6.0 and contained Lipid A, Cholesterol, DSPC, and PEG2k-DMG in a 50:38:9:2 molar ratio, respectively. Following LNP treatment, isolated genomic DNA was analyzed by NGS (e.g., as described in Examples 1 and 6) to determine whether indels could be detected at the potential off-target site, which would be indicative of a Cas9-mediated cleavage event. Tables 33 and 34 show the potential off-target sites that were evaluated for the gRNAs G000480 and G000486, respectively.
As shown in FIGS. 21A-B and 22A-B and Table 35 below, indels were detected at low levels for only two of the potential off-target sites identified by the oligo insertion assay for G000480, and only one for G000486. […] Further, indels were only detected at these sites using a near-saturating dose of LNP, as the indel rates observed at the on-target sites for G000480 and G000486 were ˜97% and ˜91%, respectively (See Table 35).
A dose response assay was then performed in order to determine the highest dose of LNP in which no off-targets were detected. PHH were treated with LNPs comprising either G000480 or G000486 as described in Example 4. The doses ranged across 11 points with respect to gRNA concentration (0.001 nM, 0.002 nM, 0.007 nM, 0.02 nM, 0.06 nM, 0.19 nM, 0.57 nM, 1.72 nM, 5.17 nM, 15.51 nM, and 46.55 nM).

TTR = TTR editing dose response (EC50, maximum editing) in primary human hepatocytes treated with LNP formulated U-depleted Spy Cas9 mRNA and sgRNAs; assay type: cell-based; details: LNP formulated U-depleted Spy Cas9 mRNA and human specific sgRNAs, dose response
How it was run: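 Primary human hepatocytes, plated 24 h earlier, got LNPs carrying Cas9 mRNA and sgRNA, preincubated 5 min in medium with 6% cyno serum. Dosing was an 8-point 3-fold series from 300 ng mRNA. At 72 h, NGS read indel/substitution frequency at the target, giving EC50 and maximum percent editing.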

[2] = LNP with 100 ng Cas9 mRNA and 14.68 nM gRNA

Molecule | highest concentration (of gRNA) at which the potential off-target sites were no longer detected [1] [nM] | indel rate observed at the on-target site [1] [%] | number of potential off-target sites identified by the oligo insertion assay at which indels were detected (low levels) [1] | indels at the in silico predicted off-target sites [1] | Indel Frequency, Off-Target site INS-OT.4 (of G000486) ([1]; LNP with 100 ng Cas9 mRNA and 14.68 nM gRNA, G000486 site INS-OT.4 (chr5: 91397023-91397043)) [%] | Indel Frequency, On-Target site [1, 2] [%] | on-target indel rate at the highest gRNA concentration without detected off-target sites [1] [%] | Max Editing (TTR) [%] | Indel Frequency, Off-Target site INS-OT.2 ([1]; LNP with 100 ng Cas9 mRNA and 14.68 nM gRNA, G000480 site INS-OT.2 (chr2: 192658562-192658582)) [%] | Indel Frequency, Off-Target site INS-OT.4 (of G000480) ([1]; LNP with 100 ng Cas9 mRNA and 14.68 nM gRNA, G000480 site INS-OT.4 (chr20: 9216118-9216138)) [%]
B1 | 15.51 | ~91 | one | No indels were detected | 0.47 | 91.33 | 89.50 | – | – | –
B2 | 0.57 | ~97 | two | No indels were detected | – | 97.33 | 84.60 | 98.69 | 1.43 | 0.97
